The record followed here is US20230374083A1.

For one data set, the target named is trastuzumab. Description: cell-based or functional assay.
Data set [1] deals with IgG1 in the sera of humans.
Data set [2] addresses human IVIg (an intravenous human immunoglobulin).

In the data set with trastuzumab, IdeE A59L (enzyme) showed a cleavage of human IgG1, SDS-PAGE of cleavage products (fold of wild-type IdeE) above 2.

Regarding IdeE A59V (enzyme), the cleavage of human IgG1, SDS-PAGE of cleavage products (fold of wild-type IdeE) in the data set with trastuzumab was above 2.

Take IdeE E97D (enzyme): the cleavage of human IgG1, SDS-PAGE of cleavage products (fold of wild-type IdeE) with trastuzumab was above 2.

The molecule IdeE R280H (enzyme) registered a cleavage of human IgG1, SDS-PAGE of cleavage products (fold of wild-type IdeE) with trastuzumab above 2.

Turning to IdeE T8D (enzyme), in the data set with trastuzumab, the cleavage of human IgG1, SDS-PAGE of cleavage products (fold of wild-type IdeE) was above 2.

Molecule IdeE T8W (enzyme) came in with a cleavage of human IgG1, SDS-PAGE of cleavage products (fold of wild-type IdeE) with trastuzumab above 2.

For the molecule IdeE T24A (enzyme), the cleavage of human IgG1, SDS-PAGE of cleavage products (fold of wild-type IdeE) with trastuzumab is above 2.

B1: E97D_del18 (protein)
chain: MITSVWTKGVTPLTPEQFRYNNEDVIHAPYLAHQGWYDITKAFDGKDNLLCGAATAGNMLHWWFDQNKTEIEAYLSKHPDKQKIIFNNQELFDLKAAIDTKDSQTNSQLFNYFRDKAFPNLSARQLGVMPDLVLDMFINGYYLNVFKTQSTDVNRPYQDKDKRGGIFDAVFTRGDQTTLLTARHDLKNKGLNDISTIIKQELTEGRALALSHTYANVSISHVINLWGADFNAEGNLEAIYVTDSDANASIGMKKYFVGINAHRHVAISAKKIEGENIGAQVLGLFTLSSGKDIWQKLSHHHHHH
In the case of B1, the “cleavage of serum IgG in vitro, reducing SDS-PAGE (25 kD Fc fragment)” value in data set [1] was “E97D_del18 can effectively and specifically cleave IgG1 in the sera of humans”; in the data set with IgG1 in the sera of mice, “has very low or no activity of cleaving IgG1 in the sera of mice”. The “cleavage of human IVIg in mouse serum or plasma in vitro, non-reducing SDS-PAGE” value in data set [2] was “E97D_del18 can effectively cleave human IVIg in both the sera and plasmas of mice”.
